In patent publication US20120316071A1 (published 2012):

Assays:
[1] = molecular target: T1, Recombinant Human DLL4 (delta-like protein 4) (human, UniProt Q9NR61 27-524); experiment: ELISA, DLL4-coated plate, 100 nM Fab
T1 construct: Bought recombinant human DLL4 (R&D Systems Cat#1506-D4/CF); also called rHuman DLL4

[2] = molecular target: T1, Recombinant Human DLL4 (delta-like …); experiment: ECL (MSD) binding assay, immobilised DLL4, 10 nM Fab;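 further: fab binding read as electrochemiluminescence via a TAG-labelled detection antibody, 1 h incubations at 20 °C, antigen signal compared with each well's blank, ratio of at least 4 scored as binder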

| Binder | ELISA Signal [100 nM Fab] [1] | ECL Signal [10 nM Fab] [2] |
| --- | --- | --- |
| Fab VH5-51_IGHD5-18*01>3_IGHJ4*01 G100K/G104T & V3-4_IGLJ1*01 M94P (Fab, V domains shown, Fab; expressed with CH1 (His and Flag tags) and lambda CL from the expression plasmids; also called H:KT & M94P) VH: EVQLVQSGAEVKKPGESLKISCKGSGYSFTSYWIGWVRQMPGKGLEWMGIIYPGDSDTRYSPSFQGQVTISADKSISTAYLQWSSLKASDTAMYYCARRKYSYTYDYFDYWGQGTLVTVSS VL: QTVVTQEPSFSVSPGGTVTLTCGLSSGSVSTSYYPSWYQQTPGQAPRTLIYSTNTRSSGVPDRFSGSILGNKAALTITGAQADDESDYYCVLYPGSGISYVFGTGTKVTVL | 0.01 | 39900 |
| Fab VH5-51_IGHD5-18*01>3_IGHJ4*01 G100K/G104T & V3-4_IGLJ1*01 V91C (Fab, V domains shown, Fab; expressed with CH1 (His and Flag tags) and lambda CL from the expression plasmids; also called H:KT & V91C) VH: EVQLVQSGAEVKKPGESLKISCKGSGYSFTSYWIGWVRQMPGKGLEWMGIIYPGDSDTRYSPSFQGQVTISADKSISTAYLQWSSLKASDTAMYYCARRKYSYTYDYFDYWGQGTLVTVSS VL: QTVVTQEPSFSVSPGGTVTLTCGLSSGSVSTSYYPSWYQQTPGQAPRTLIYSTNTRSSGVPDRFSGSILGNKAALTITGAQADDESDYYCCLYMGSGISYVFGTGTKVTVL | 0.02 | 38300 |
| Fab VH5-51_IGHD5-18*01>3_IGHJ4*01 G100K/G104T & V3-4_IGLJ1*01 V91E (Fab, V domains shown, Fab; expressed with CH1 (His and Flag tags) and lambda CL from the expression plasmids; also called H:KT & V91E) VH: EVQLVQSGAEVKKPGESLKISCKGSGYSFTSYWIGWVRQMPGKGLEWMGIIYPGDSDTRYSPSFQGQVTISADKSISTAYLQWSSLKASDTAMYYCARRKYSYTYDYFDYWGQGTLVTVSS VL: QTVVTQEPSFSVSPGGTVTLTCGLSSGSVSTSYYPSWYQQTPGQAPRTLIYSTNTRSSGVPDRFSGSILGNKAALTITGAQADDESDYYCELYMGSGISYVFGTGTKVTVL | 0 | 22500 |
| Fab VH5-51_IGHD5-18*01>3_IGHJ4*01 G100K/G104T & V3-4_IGLJ1*01 V91N (Fab, V domains shown, Fab; expressed with CH1 (His and Flag tags) and lambda CL from the expression plasmids; also called H:KT & V91N) VH: EVQLVQSGAEVKKPGESLKISCKGSGYSFTSYWIGWVRQMPGKGLEWMGIIYPGDSDTRYSPSFQGQVTISADKSISTAYLQWSSLKASDTAMYYCARRKYSYTYDYFDYWGQGTLVTVSS VL: QTVVTQEPSFSVSPGGTVTLTCGLSSGSVSTSYYPSWYQQTPGQAPRTLIYSTNTRSSGVPDRFSGSILGNKAALTITGAQADDESDYYCNLYMGSGISYVFGTGTKVTVL | 0 | 46700 |
| Fab VH5-51_IGHD5-18*01>3_IGHJ4*01 G100K/G104T & V3-4_IGLJ1*01 V91S (Fab, V domains shown, Fab; expressed with CH1 (His and Flag tags) and lambda CL from the expression plasmids; also called H:KT & V91S) VH: EVQLVQSGAEVKKPGESLKISCKGSGYSFTSYWIGWVRQMPGKGLEWMGIIYPGDSDTRYSPSFQGQVTISADKSISTAYLQWSSLKASDTAMYYCARRKYSYTYDYFDYWGQGTLVTVSS VL: QTVVTQEPSFSVSPGGTVTLTCGLSSGSVSTSYYPSWYQQTPGQAPRTLIYSTNTRSSGVPDRFSGSILGNKAALTITGAQADDESDYYCSLYMGSGISYVFGTGTKVTVL | 0.01 | 32100 |
| Fab VH5-51_IGHD5-18*01>3_IGHJ4*01 G100K/G104T & V3-4_IGLJ1*01 V91L (Fab, V domains shown, Fab; expressed with CH1 (His and Flag tags) and lambda CL from the expression plasmids; also called H:KT & V91L) VH: EVQLVQSGAEVKKPGESLKISCKGSGYSFTSYWIGWVRQMPGKGLEWMGIIYPGDSDTRYSPSFQGQVTISADKSISTAYLQWSSLKASDTAMYYCARRKYSYTYDYFDYWGQGTLVTVSS VL: QTVVTQEPSFSVSPGGTVTLTCGLSSGSVSTSYYPSWYQQTPGQAPRTLIYSTNTRSSGVPDRFSGSILGNKAALTITGAQADDESDYYCLLYMGSGISYVFGTGTKVTVL | 0.02 | 41600 |
| Fab VH5-51_IGHD5-18*01>3_IGHJ4*01 G100K/G104T & V3-4_IGLJ1*01 M94R (Fab, V domains shown, Fab; expressed with CH1 (His and Flag tags) and lambda CL from the expression plasmids; also called H:KT & M94R) VH: EVQLVQSGAEVKKPGESLKISCKGSGYSFTSYWIGWVRQMPGKGLEWMGIIYPGDSDTRYSPSFQGQVTISADKSISTAYLQWSSLKASDTAMYYCARRKYSYTYDYFDYWGQGTLVTVSS VL: QTVVTQEPSFSVSPGGTVTLTCGLSSGSVSTSYYPSWYQQTPGQAPRTLIYSTNTRSSGVPDRFSGSILGNKAALTITGAQADDESDYYCVLYRGSGISYVFGTGTKVTVL | 0.01 | 77800 |
| Fab VH5-51_IGHD5-18*01>3_IGHJ4*01 G100K/G104T & V3-4_IGLJ1*01 V91H (Fab, V domains shown, Fab; expressed with CH1 (His and Flag tags) and lambda CL from the expression plasmids; also called H:KT & V91H) VH: EVQLVQSGAEVKKPGESLKISCKGSGYSFTSYWIGWVRQMPGKGLEWMGIIYPGDSDTRYSPSFQGQVTISADKSISTAYLQWSSLKASDTAMYYCARRKYSYTYDYFDYWGQGTLVTVSS VL: QTVVTQEPSFSVSPGGTVTLTCGLSSGSVSTSYYPSWYQQTPGQAPRTLIYSTNTRSSGVPDRFSGSILGNKAALTITGAQADDESDYYCHLYMGSGISYVFGTGTKVTVL | 0.01 | 27100 |
| Fab VH5-51_IGHD5-18*01>3_IGHJ4*01 G100K/G104T & V3-4_IGLJ1*01 V91I (Fab, V domains shown, Fab; expressed with CH1 (His and Flag tags) and lambda CL from the expression plasmids; also called H:KT & V91I) VH: EVQLVQSGAEVKKPGESLKISCKGSGYSFTSYWIGWVRQMPGKGLEWMGIIYPGDSDTRYSPSFQGQVTISADKSISTAYLQWSSLKASDTAMYYCARRKYSYTYDYFDYWGQGTLVTVSS VL: QTVVTQEPSFSVSPGGTVTLTCGLSSGSVSTSYYPSWYQQTPGQAPRTLIYSTNTRSSGVPDRFSGSILGNKAALTITGAQADDESDYYCILYMGSGISYVFGTGTKVTVL | 0.01 | 51200 |
